Data on one protein can be found in paper PMC4854314, “RNA protects a nucleoprotein complex against radiation damage” (Acta Crystallographica. Section D, Structural Biology, 2016).

This series concerns the molecule itself. Description: crystal structure; TRAP-RNA crystals, hanging drop, 2:1 molar ratio of TRAP to RNA, 70 mM potassium phosphate pH 7.8, 10 mM L-tryptophan; data collected at 100 K, 1.98 Å; asymmetric unit holds one RNA-bound and one non-RNA-bound TRAP ring.

B1: trp RNA-binding attenuation protein (TRAP) from B. stearothermophilus (natural protein)
chain: MYTNSDFVVIKALEDGVNVIGLTRGADTRFHHSEKLDKGEVLIAQFTEHTSAIKVRGKAYIQTRHGVIESEGKK
notes: construct as in Hopcroft et al., 2002 (PDB 1gtf); 11 identical subunits form a ring; also called TRAP ring; source: overexpressed in Escherichia coli and purified; copies: 11
In the case of B1, the “stoichiometry N” value is 11.

The stoichiometry N is the number of molecules, sites or subunits per partner or assembly.
